Molecular target: Dengue virus serotype 4 (DENV4) virions, envelope protein E (Dengue virus 4)

| Binder | FRNT50 (focus reduction neutralization on Vero cells) [ng/mL] |
| --- | --- |
| Anti-ZIKV clone DT168(A)-D1_G-9E (G9E) (antibody, V domains shown) VH: EVQLVESGGGVVQPGRSLRLSCVASGFAFSNYHMHWVRQAPGKGLEWVAIIWDDGSDQYYADSVKGRFTISRDNSKNTLFLQMNRLRAEDTALYYCVGGSSAYNGDNGWREAASLDDWGQGTLVTVSS VL: QSALTQPASVSGSPGQSITIFCSGSSNDVGGYNYVSWYQQYPGKVPKLLIYDVNSRPSGVSNRFSGSKSGNTASLTISGLQAEDEADYYCSSYTSRRTWVFGGGTIVTVL | > 10000 |
| Anti-ZIKV clone DT168(A)-D1_A-9E (A9E) (antibody, V domains shown) VH: EVQLLESGGGLVQAGGSLRLSCAASGFTFDTYAMSWVRQPPGKGLEWVSAISTGGGSKYYADSVKGRLTISRDNSQNTLYLQMSSLRADDTAVYYCARSDFWRSGRYYYYMDVWGRGTTVTVSS VL: QSALTQPASVSASPGQSITISCTGTHFDIVDYDYLSWYQQHPGNAPKLLIYGVSNRPSGVSSRFSGSKSGNTASLTISGLQAEDEGDYYCSSYSISSTLLVFGGGTKLSV | > 10000 |

Reference: patent publication US20210054055A1
